Here are results for one molecule from patent US20180346604A1.

By Kd is commonly meant the equilibrium constant for the complex coming apart. The koff is the rate constant with which the complex falls apart. Read a high koff as fast dissociation. By kon is commonly meant a measure of how fast the partners come together. A low value points to slower complex formation.

In assay [1] the target is Biotin-GCN4 peptide (yeast). Nature of the assay: SPR, Biacore 3000, 25 C; biotin-GCN4 peptide captured on streptavidin CM5 chip, Fab-scFv as analyte from 30 nM, 1:1 model. (Surface plasmon resonance follows binding to a sensor surface in real time, without labels.)
The target in assay [2] is Biotin-GCN4 peptide (yeast). As to the kind of experiment: SPR (Biacore 3000), Biotin-GCN4 peptide captured on immobilised streptavidin, Fab-scFv injected, 1:1 binding model.

B1: Fab-scFv (anti-GCN4 52SR4 scFv fused to a Fab, generated in-house) (Fab, part only; not given: carrier Fab and its linker, not shown: another chain or arm of the molecule; large carriers; small tags and cut ends)
scFv: DAVVTQESALTSSPGETVTLTCRSSTGAVTTSNYASWVQEKPDHLFTGLIGGTNNRAPGVPARFSGSLIGDKAALTITGAQTEDEAIYFCVLWYSDHWVFGCGTKLTVLGGGGGSGGGGSGGGGSGGGGSDVQLQQSGPGLVAPSQSLSITCTVSGFLLTDYGVNWVRQSPGKCLEWLGVIWGDGITDYNSALKSRLSVTKDNSKSQVFLKMNSLQSGDSARYYCVTGLFDYWGQGTTLTVSSAAAHHHHHHEQKLISEEDL
For the molecule B1, the Kd in assay [1] was 0.516 nM. In assay [2], this molecule gave a dissociation rate constant (koff) of 0.00027 s⁻¹ and a kon of 510000 M⁻¹ s⁻¹.
